5 molecules from patent US20260078196A1 (TJ BIOPHARMA SHANGHAI, published 2026) can be followed below.

In assay [1] the target is T1, ROR1 antigen (UniProt Q01973 30-406, limits assumed).
T1 construct: Soluble antigen of the Octet binning and of the SPR assay
The assay can be described thus: SPR, binding to ROR1. (In general: In SPR one partner is held on a chip, and binding of the other changes the refractive index at the surface.)

Assay [2] deals with T2, ROR1 on cells (UniProt Q01973 30-937).
T2 construct: whole, on cells; also called ROR1 endogenous expressed tumor cell A549; ROR1-positive tumor cell lines
As to the kind of experiment: flow cytometry (gMFI) on MDA-MB-231 cells. Background: A flow cytometer gives signals particle by particle.

The target of assay [3] is T1, ROR1 antigen. As to the kind of experiment: SPR on ROR1.
Assay [4] deals with T2, ROR1 on cells. As to the kind of experiment: flow cytometry (gMFI) on A549 cells.
In assay [5] the target is T1, ROR1 antigen. The assay can be described thus: SPR on ROR1. The source holds these as a separate data set.
Assay [6] concerns the target T1, ROR1 antigen. As to the kind of experiment: SPR on ROR1. This is another data set of the same source.
Assay [7] concerns the target T2, ROR1 on cells. The assay can be described thus: flow cytometry (gMFI) on A549 cells. This is another data set of the same source.

Read-outs that look alike come from different tables or passages of the source.

B1: 4B-8F2 (humanized) or 4B-h8F2 (bispecific antibody, human IgG1, kappa)
heavy: not shown
light: DIVMTQTPLSLSVTPGQPASISCKSSQSLLHSNGKTYLNWYLQKPGQSPQLLIYLVSKLESGVPDRFSGSGSGTDFTLKISRVEAEDVGVYYCLQATYFPYTFGQGTKLEIKRTVAAPSVFIFPPSDEQLKSGTASVVCLLNNFYPREAKVQWKVDNALQSGNSQESVTEQDSKDSTYSLSSTLTLSKADYEKHKVYACEVTHQGLSSPVTKSFNRGEC
notes: Humanized ROR1 x 4-1BB BsAb
In turn, B1 displayed a Kd with ROR1 antigen [1] of 237 nM. Moreover, the entries for the half-maximal effective concentration (EC50 (read off the curve)) with ROR1 on cells [2] and in the assay with ROR1 on cells [4] were about 0.01 nM and about 0.03 nM, respectively. Also, the dissociation rate constant (koff) with ROR1 antigen [3] came to 0.0592 s⁻¹. Further, in the assay with ROR1 antigen [3], the kon was determined as 250000 M⁻¹ s⁻¹.

B2: 4B-BiR1(Humanized) or 4B-hBiR1 (bispecific antibody, human IgG1, kappa)
heavy: not shown
chain: DIVMTQTPLSLSVTPGQPASISCKSSQSLLHSNGKTYLNWYLQKPGQSPQLLIYLVSKLESGVPDRFSGSGSGTDFTLKISRVEAEDVGVYYCLQATYFPYTFGQGTKLEIKGGGGSGGGGSGGGGSQVQLVQSGAEVKKPGASVKVSCKASGYTFTTYVMHWVRQAPGQGLEWMGYINPYNGGIRYNEKFKGRVTMTRDTSTSTVYMELSSLRSEDTAVYYCARRERGVYYGMDEWGQGTLVTVSSAAEPKSSDKTHTCPPCPAPELLGGPSVFLFPPKPKDTLMISRTPEVTCVVVDVSHEDPEVKFNWYVDGVEVHNAKTKPREEQYNSTYRVVSVLTVLHQDWLNGKEYKCKVSNKALPAPIEKTISKAKGQPREPQVCTLPPSREEMTKNQVSLSCAVKGFYPSDIAVEWESNGQPENNYKTTPPVLDSDGSFFLVSKLTVDKSRWQQGNVFSCSVMHEALHNHYTQKSLSLSPGKGGGGSGGGGSGGGGSQVQLQESGGGLVQPGGSLRLSCAASGYTYSSNCMGWFRQAPGKGLEGVAVICTGGGSPSYADSVKGRFTISRDNAKNTLYLQMNSLRAEDTAVYYCAADLLRAGTPLSSYEFNYWGQGTLVTVSS
light: DIQMTQSPSSLSASVGDRVTITCRASQDIYSYLSWFQQKPGKAPKTLIYRANRLVDAVPSRFSGSGSGQDYTLTISSLQPEDFATYYCLQYDEFPYTFGQGTKLEIKRTVAAPSVFIFPPSDEQLKSGTASVVCLLNNFYPREAKVQWKVDNALQSGNSQESVTEQDSKDSTYSLSSTLTLSKADYEKHKVYACEVTHQGLSSPVTKSFNRGEC
notes: Humanized bi-paratopic ROR1 x 4-1BB antibody: h3C5 IgG half with VHH plus h8F2 scFv-Fc-VHH; also called 4-hiBiR1
Take B2: in the assay with ROR1 antigen [1], the dissociation constant (Kd) worked out at 12.1 nM. In the assay with ROR1 on cells [2], the concentration for a half-maximal effect (EC50 (read off the curve)) is about 0.06 nM. In the assay with ROR1 antigen [5], this molecule returned a koff of 0.00114 s⁻¹ and a kon of 93600 M⁻¹ s⁻¹. For the same molecule, the concentration for a half-maximal effect (EC50 (read off the curve)) with ROR1 on cells [4] was about 0.1 nM.

B3: 4B-3C5 (humanized) or 4B-h3C5 (bispecific antibody, human IgG1, kappa)
heavy: not shown
light: DIQMTQSPSSLSASVGDRVTITCRASQDIYSYLSWFQQKPGKAPKTLIYRANRLVDAVPSRFSGSGSGQDYTLTISSLQPEDFATYYCLQYDEFPYTFGQGTKLEIKRTVAAPSVFIFPPSDEQLKSGTASVVCLLNNFYPREAKVQWKVDNALQSGNSQESVTEQDSKDSTYSLSSTLTLSKADYEKHKVYACEVTHQGLSSPVTKSFNRGEC
notes: Humanized ROR1 x 4-1BB BsAb; also called humanized 3C5 IgG x 4-1BB VHH
In the assay with ROR1 antigen [1], B3 gave an equilibrium dissociation constant (Kd) of 79.3 nM. In addition, in the assay with ROR1 antigen [6], the koff was determined as 0.00821 s⁻¹ and the on-rate constant (kon) was 104000 M⁻¹ s⁻¹. The “EC50 (read off the curve)” value with ROR1 on cells [2] is about 0.03 nM. Moreover, the half-maximal effective concentration (EC50 (read off the curve)) with ROR1 on cells [4] is about 0.03 nM.

B4: 8F2 (antibody, V domains shown)
VH: EVQLQQSGPELVKPGASVKMSCKASGYTFTTYVMHWVKQKPGQGLEWIGYINPYNGGIRYNEKFKGKATLTSDKSSSTAYMELSSLTSEDSAVYYCARRERGVYYGMDEWGQGTSVTVSS
VL: DVVMTQTPLTLSVTIGQPASISCKSSQSLLHSNGKTYLNWLLQRPGQSPNLLIYLVSKLESGVPDRFSGSGSGTDFTLKISRVEAEDLGVYYCLQATYFPYTFGSGTKLEIK
notes: Anti-ROR1 mAb (chimeric section 9.1); also called anti-ROR1 mAb 8F2
As for B4, the concentration giving a half-maximal response (EC50 (read off the curve)) with ROR1 on cells [7] was about 0.02 nM.

B5: humanized 8F2 anti-ROR1 mAb (antibody, V domains shown)
VH: QVQLVQSGAEVKKPGASVKVSCKASGYTFTTYVMHWVRQAPGQGLEWMGYINPYNGGIRYNEKFKGRVTMTRDTSTSTVYMELSSLRSEDTAVYYCARRERGVYYGMDEWGQGTLVTVSS
VL: DIVMTQTPLSLSVTPGQPASISCKSSQSLLHSNGKTYLNWYLQKPGQSPQLLIYLVSKLESGVPDRFSGSGSGTDFTLKISRVEAEDVGVYYCLQATYFPYTFGQGTKLEIK
notes: also called h8F2
For B5, in the assay with ROR1 on cells [7], the binding result is recorded as “binds”.

Usually Kd stands for a measure of binding affinity in units of concentration. The low end stands for tighter binding, the high end for weaker binding. The term EC50 (read off the curve) denotes the concentration that produces a half-maximal response. A higher EC50 (read off the curve) goes with a less potent agent. In general, koff refers to a measure of how fast the partners let go of each other. The low end stands for slow dissociation, the high end for fast dissociation. As usually defined, the kon is the second-order rate constant of association. Read a low kon as slower complex formation.
